Data taken from patent publication EP4289863A9 (Shanghai Huaota Biopharmaceutical Co., Ltd., dated 2024).

Columns and labels:
[1] = target: T1, IL17A (analyte of Table 17) (Homo sapiens (Human), UniProt Q16552 24-155); assay: SPR Biacore 8K, antibody captured on anti-human chip, antigen as analyte, 1:1 model
T1 sequence: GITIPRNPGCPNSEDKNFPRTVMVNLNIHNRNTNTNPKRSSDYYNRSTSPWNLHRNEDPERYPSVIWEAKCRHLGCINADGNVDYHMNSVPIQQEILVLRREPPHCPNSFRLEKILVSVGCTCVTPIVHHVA

[2] = target: T2, IL36R (analyte of Table 17) (Homo sapiens (Human), UniProt Q9HB29 20-335); assay: as above
T2 sequence: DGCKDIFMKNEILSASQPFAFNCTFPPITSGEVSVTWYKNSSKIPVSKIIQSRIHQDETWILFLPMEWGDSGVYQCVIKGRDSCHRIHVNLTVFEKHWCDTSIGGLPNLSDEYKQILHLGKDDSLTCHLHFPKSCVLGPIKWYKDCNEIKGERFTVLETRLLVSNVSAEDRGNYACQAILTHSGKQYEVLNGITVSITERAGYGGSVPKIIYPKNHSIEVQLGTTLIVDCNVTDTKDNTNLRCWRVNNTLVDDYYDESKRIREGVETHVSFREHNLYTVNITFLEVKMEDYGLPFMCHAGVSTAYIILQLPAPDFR

[3] = target: T3, Human IL-17A (human, UniProt Q16552 24-155); assay: ELISA, human IL-17A coated at 1 µg/ml
T3 construct: also called IL-17A recombinant protein; IL-17A soluble recombinant protein
T3 sequence (looked up): T1 sequence

[4] = target: T4, human IL-36R (human, UniProt Q9HB29 20-575); assay: flow cytometry on CHO-K1-huIL-36R-5E10/2F10 cells
T4 construct: whole, on cells; also called huIL-36R; IL36R receptors on cell membranes
T4 sequence (looked up): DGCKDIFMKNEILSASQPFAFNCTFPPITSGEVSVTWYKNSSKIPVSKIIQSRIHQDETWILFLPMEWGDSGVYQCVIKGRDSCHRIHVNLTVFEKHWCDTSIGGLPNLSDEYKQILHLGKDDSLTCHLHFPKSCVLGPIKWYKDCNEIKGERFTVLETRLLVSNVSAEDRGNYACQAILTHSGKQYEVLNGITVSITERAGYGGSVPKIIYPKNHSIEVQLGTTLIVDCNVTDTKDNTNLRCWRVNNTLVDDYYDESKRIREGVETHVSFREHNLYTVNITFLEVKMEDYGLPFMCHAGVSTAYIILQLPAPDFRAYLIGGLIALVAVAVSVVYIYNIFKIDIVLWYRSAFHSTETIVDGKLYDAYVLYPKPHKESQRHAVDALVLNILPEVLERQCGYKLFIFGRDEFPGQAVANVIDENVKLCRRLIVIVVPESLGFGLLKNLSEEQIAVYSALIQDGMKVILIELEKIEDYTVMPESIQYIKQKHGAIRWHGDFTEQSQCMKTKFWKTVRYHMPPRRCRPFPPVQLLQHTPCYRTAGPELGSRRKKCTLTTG

[5] = target: T4, human IL-36R; assay: cell-based or functional assay

B1: IL17A-IL36R bispecific antibody 700005 (bispecific antibody)
heavy (part 1 of 2): QVQLVQSGSELKKPGASVKVSCKASEYIFTNYGMNWVKQAPGQGFEWMGWIDTNTGEPTYAQGFTGRFVFSLDTSVSTAYLQISSLKAEDTATYYCANYGWGYFDYWGQGTTVTVSS
heavy (part 2 of 2): GGGGSGGGGSGGGGSGGGGSQIVLTQSPGTLSLSPGERATLSCRASSSVSSSYLHWYQQKPGQAPRLWIYSTSSRATGIPDRFSGSGSGTDFTLTISRLEPEDFATYYCQQFQSSPLTFGQGTKLEIKGGGGSGGGGSGGGGSQVQLVQSGAEVKKPGASVKVSCKASGYTFTSSWMHWAKQAPGQGLEWIGEIHPNSAKTNYNQKFQGRVTMTRDTSISTAYMELSRLRSDDTAVYYCARVDYGKPWFAYWGQGTLVTVSS
light: DVVMTQTPPSLPVNPGEPASISCRSSQSLVHSNGYTYLHWYLQKPGQSPQLLIYKVSNHLSGVPDRFSGSGSGTDFTLKISWVEAEDVGVYFCSQSTHVPYTFGGGTKLEIKRTVAAPSVFIFPPSDEQLKSGTASVVCLLNNFYPREAKVQWKVDNALQSGNSQESVTEQDSKDSTYSLSSTLTLSKADYEKHKVYACEVTHQGLSSPVTKSFNRGEC
notes: also called 70005; not shown: heavy constant region CH1-CH2-CH3
[1]
  Kd: 6.1 pM
  koff: 4.13e-05 s⁻¹
  kon: 6.77e+06 M⁻¹ s⁻¹
[2]
  Kd: 0.35 nM
  koff: 7.2e-05 s⁻¹
  kon: 205000 M⁻¹ s⁻¹
[3]
  EC50: 0.18 nM
[4]
  EC50: 0.747 nM
[5]
  EC50 of inhibition of IL-6 content, NCI/ADR-RES cells stimulated with IL-36β: 0.45 nM
